Measurements: paper PMC6802964

Experiments:
Assay in all cases: other fluorescence titration; change of the CyPet-YPet FRET signal of the IQ-FRET protein (1 µM by the methods, 0.5 µM by the legend) with varying concentrations of Cam1 or Cam2; 140 mM KCl, 20 mM MOPS pH 7.0, with or without 2 mM MgCl2, 2 mM EGTA (absence of calcium)
[1] = molecular target: T1, CyPet–Myo1^IQ1–YPet FRET reporter protein (S. pombe)
T1 sequence (Q9Y7Z8 whole entry, looked up): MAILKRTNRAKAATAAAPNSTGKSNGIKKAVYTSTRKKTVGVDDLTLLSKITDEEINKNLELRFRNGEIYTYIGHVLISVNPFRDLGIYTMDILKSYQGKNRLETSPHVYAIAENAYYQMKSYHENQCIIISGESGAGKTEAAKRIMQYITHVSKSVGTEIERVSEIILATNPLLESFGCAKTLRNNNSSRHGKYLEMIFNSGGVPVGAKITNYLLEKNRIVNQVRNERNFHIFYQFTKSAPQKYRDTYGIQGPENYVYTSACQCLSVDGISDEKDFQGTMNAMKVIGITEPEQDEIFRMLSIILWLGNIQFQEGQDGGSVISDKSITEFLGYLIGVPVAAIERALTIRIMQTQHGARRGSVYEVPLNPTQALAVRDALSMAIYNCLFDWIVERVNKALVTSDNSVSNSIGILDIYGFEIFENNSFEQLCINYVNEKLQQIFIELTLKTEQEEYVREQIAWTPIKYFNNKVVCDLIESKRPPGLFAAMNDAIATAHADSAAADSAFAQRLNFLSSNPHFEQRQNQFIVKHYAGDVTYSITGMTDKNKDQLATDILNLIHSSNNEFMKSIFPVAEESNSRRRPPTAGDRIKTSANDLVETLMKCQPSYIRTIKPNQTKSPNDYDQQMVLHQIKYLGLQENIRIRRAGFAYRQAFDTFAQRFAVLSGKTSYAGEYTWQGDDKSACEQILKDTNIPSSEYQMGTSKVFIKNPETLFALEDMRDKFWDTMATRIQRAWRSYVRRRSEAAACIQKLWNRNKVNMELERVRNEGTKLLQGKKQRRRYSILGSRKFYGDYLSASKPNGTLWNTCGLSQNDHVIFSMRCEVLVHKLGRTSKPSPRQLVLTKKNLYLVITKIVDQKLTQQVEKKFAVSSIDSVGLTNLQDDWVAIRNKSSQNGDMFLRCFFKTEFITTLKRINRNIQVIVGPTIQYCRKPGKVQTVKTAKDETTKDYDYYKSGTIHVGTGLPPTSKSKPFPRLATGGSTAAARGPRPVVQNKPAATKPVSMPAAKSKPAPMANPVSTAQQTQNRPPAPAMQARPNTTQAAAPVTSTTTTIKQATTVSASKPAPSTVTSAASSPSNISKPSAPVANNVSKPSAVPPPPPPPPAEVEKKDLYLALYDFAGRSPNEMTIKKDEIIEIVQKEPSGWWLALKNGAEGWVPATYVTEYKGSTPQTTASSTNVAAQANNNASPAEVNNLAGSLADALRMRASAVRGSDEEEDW

[2] = molecular target: CyPet–Myo1^IQ12S742D–YPet FRET reporter protein (S742D phosphomimetic) (S. pombe)
[3] = molecular target: T2, CyPet–Myo1^IQ12–YPet FRET reporter protein (S. pombe)
T2 sequence (Q9Y7Z8 whole entry, looked up): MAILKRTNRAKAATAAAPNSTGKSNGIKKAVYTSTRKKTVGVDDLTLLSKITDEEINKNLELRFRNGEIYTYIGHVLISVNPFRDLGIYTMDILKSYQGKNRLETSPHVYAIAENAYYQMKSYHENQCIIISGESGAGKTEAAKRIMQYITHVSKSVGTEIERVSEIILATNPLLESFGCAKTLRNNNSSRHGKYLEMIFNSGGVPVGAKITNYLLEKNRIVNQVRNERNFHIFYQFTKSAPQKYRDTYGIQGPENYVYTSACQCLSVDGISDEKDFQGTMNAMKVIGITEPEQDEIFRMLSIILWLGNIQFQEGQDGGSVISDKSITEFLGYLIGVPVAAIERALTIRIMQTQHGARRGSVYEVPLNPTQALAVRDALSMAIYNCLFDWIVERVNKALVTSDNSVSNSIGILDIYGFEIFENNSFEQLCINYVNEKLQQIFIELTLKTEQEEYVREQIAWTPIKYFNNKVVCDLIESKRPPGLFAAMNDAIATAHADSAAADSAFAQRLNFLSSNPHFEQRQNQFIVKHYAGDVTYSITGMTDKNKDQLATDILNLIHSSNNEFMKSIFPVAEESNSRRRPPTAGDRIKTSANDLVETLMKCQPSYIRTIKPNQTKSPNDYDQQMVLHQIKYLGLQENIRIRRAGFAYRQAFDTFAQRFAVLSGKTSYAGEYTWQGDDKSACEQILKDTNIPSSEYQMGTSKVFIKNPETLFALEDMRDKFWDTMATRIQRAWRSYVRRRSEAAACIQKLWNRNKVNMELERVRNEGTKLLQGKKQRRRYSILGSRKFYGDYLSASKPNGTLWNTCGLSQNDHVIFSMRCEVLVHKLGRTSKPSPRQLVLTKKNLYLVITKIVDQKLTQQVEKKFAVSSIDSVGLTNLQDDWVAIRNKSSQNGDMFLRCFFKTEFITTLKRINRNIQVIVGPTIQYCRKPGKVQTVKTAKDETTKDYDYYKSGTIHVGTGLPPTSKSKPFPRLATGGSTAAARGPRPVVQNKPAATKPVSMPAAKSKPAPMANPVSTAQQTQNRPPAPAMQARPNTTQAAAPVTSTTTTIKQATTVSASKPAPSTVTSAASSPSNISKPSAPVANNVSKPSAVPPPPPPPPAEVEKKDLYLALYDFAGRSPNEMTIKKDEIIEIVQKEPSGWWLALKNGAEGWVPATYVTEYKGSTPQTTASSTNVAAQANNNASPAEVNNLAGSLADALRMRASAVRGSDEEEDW

B1: Cam2 (calcium-insensitive calmodulin-like protein) (natural protein)
chain: MPASKEQTDEMKEAFVLYDIDKDGLIPTSHVGSVLRSLGINVTDAELAKLSNELGDAIDEKKFMSFVSNKLRETESEEEYIKAFRVFDKDNSGYIETAKFADYMKTLGEKLSDNEVQLMVQEADPTNSGSFDYYDFVQRIMAK
B1 gave a Kd [1] of 400 nM, a drop in interaction against wild type Myo1^IQ12–FRET [2] of 50% and a KD of the binding event that gives 70% of the signal change [3] of 1.1 µM. For the same binder, the stoichiometry N [3] was 2.
